Target: IZN36 (HIV)

B1: D5 IgG (antibody, V domains shown)
VH: QVQLVQSGAEVRKPGASVKVSCKASGDTFSSYAISWVRQAPGQGLEWMGGIIPIFGTANYAQKFQGRVTITADESTSTAYMELSSLRSEDTAIYYCARDNPTLLGSDYWGKGTLVTVSS
VL: DIQMTQSPSTLSASIGDRVTITCRASEGIYHWLAWYQQKPGKAPKLLIYKASSLASGAPSRFSGSGSGTDFTLTISSLQPDDFATYYCQQYSNYPLTFGGGTKLEIK
IC50 (read off the curve): 0.6 nM

Source: patent US20070248613A1
